The record followed here is publication PMC5242376 (Science signaling, 2016).

The target of assay [1] is T1, His-tagged MuSK ectodomain (UniProt Q61006 22-494).
T1 sequence (looked up): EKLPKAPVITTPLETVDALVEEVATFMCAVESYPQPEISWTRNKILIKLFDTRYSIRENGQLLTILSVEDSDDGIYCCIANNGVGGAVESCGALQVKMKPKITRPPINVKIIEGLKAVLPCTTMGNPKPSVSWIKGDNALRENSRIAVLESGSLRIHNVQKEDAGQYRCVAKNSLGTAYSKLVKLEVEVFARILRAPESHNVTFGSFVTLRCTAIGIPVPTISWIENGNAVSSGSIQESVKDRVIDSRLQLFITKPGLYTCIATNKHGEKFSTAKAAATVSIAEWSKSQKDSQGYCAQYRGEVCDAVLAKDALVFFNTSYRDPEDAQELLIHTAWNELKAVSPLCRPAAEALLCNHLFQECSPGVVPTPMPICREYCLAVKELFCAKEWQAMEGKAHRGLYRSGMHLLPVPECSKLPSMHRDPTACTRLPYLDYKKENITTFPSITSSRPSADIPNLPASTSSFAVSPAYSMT
As to the kind of experiment: SPR. Background: In SPR one partner is held on a chip, and binding of the other changes the refractive index at the surface.

For assay [2], the target named is T2, full-length Fc-fusion MuSK ectodomain (UniProt Q61006 22-494).
T2 sequence (looked up): T1 sequence (looked up)
As to the kind of experiment: ELISA. (In general: In an ELISA, binding on a coated surface is turned into a signal by an enzyme label.)

B1: recombinant human BMP2 (ligand, UniProt P12643 283-396, looked up)
chain: QAKHKQRKRLKSSCKRHPLYVDFSDVGWNDWIVAPPGYHAFYCHGECPFPLADHLNSTNHAIVQTLVNSVNSKIPKACCVPTELSAISMLYLDENEKVVLKNYQDMVVEGCGCR
Take B1: the Kd (as a rule, the constant that tells how readily two partners part at equilibrium) in assay [1] was 0.0056 µM.

B2: recombinant human BMP4 (ligand, UniProt P12644 293-408, looked up)
chain: SPKHHSQRARKKNKNCRRHSLYVDFSDVGWNDWIVAPPGYQAFYCHGDCPFPLADHLNSTNHAIVQTLVNSVNSSIPKACCVPTELSAISMLYLDEYDKVVLKNYQEMVVEGCGCR
As for B2, the EC50 (commonly the concentration that produces a half-maximal response) in assay [2] was approximately 0.03 µM.

B3: recombinant human BMP7 (ligand, UniProt P18075 293-431, looked up)
chain: STGSKQRSQNRSKTPKNQEALRMANVAENSSSDQRQACKKHELYVSFRDLGWQDWIIAPEGYAAYYCEGECAFPLNSYMNATNHAIVQTLVHFINPETVPKPCCAPTQLNAISVLYFDDSSNVILKKYRNMVVRACGCH
B3 came in with a Kd in assay [1] of 0.0118 µM.
